Measurements reported in patent publication US20210054078A1 (PHARMABCINE, published 2021).
Residue numbers refer to the chain shown, from its start.

B1: 1G1 anti-PD-L1 antibody (IgG form) (antibody, V domains shown)
VH: QVQLVESGGGLVQPGRSLRLSCAASGFTFDDYAMHWVRQAPGKGLEWVSGISWNSGSIGYADSVKGRFTISRDNAKNSLYLQMNSLRAEDTAVYYCAKPRDISSWLGMDVWGQGTTVTVSS
VL: DIQMTQSPSSVSASVGDRVTITCRASQDISSWLAWYQQKPGKAPKLLIYAASSLQSGVPSRFSGSGSGTDFTLTISSLQPEDSATYYCQQTNNFPYTFGQGTKLEIKR
notes: Converted to IgG with the vectors pIgGHD-6A6Hvy and pIgGLD-6A6Lgt; Expressed in Expi293F cells; also called IG1
B2: ME4 anti-PD-L1 antibody (IgG form) (antibody, V domains shown)
VH: QVQLVESGAEVKKPGSSVKVSCKASGGTFNNYAVSWVRQAPGQGLEWMGRIIPILGIANYAQTFQGRVTITADKSTTTAYMELSSLRSEDTAVYYCARSYSGYAEGAFDIWGQGTMVTVSS
VL: QFVLTQPPSVSGAPGQRVTISCTGSSSNIGAGYDVHWYQQLPGTAPKVLIYGNSDRPSGVPDRFSGSKSGTSASLAITGLQGEDKATYYCQSYDSRLSGPVFGTGTKVTVLG
notes: Converted to IgG with the vectors pIgGHD-6A6Hvy and pIgGLD-6A6Lgt; Expressed in Expi293F cells
B3: ME4.A2 anti-PD-L1 antibody (IgG form) (antibody, V domains shown)
VH: B2 VH with Y100S, S101R, E105H
VL: B2 VL
B4: ME4.B12 anti-PD-L1 antibody (IgG form) (antibody, V domains shown)
VH: B2 VH with Y100S, S101F, A104S, E105V
VL: B2 VL
B5: ME4.B10 anti-PD-L1 antibody (IgG form) (antibody, V domains shown)
VH: B2 VH with Y100A, S101R, E105H
VL: B2 VL
B6: ME4.A12 anti-PD-L1 antibody (IgG form) (antibody, V domains shown)
VH: B2 VH with Y100H, S101W, E105H
VL: B2 VL
B7: ME4.A11 anti-PD-L1 antibody (IgG form) (antibody, V domains shown)
VH: B2 VH with Y100R, S101G, E105H
VL: B2 VL

molecular target: T1, Mouse PD-L1-HisTag (#50010-M08H, Sino Biological Inc.) (mouse, UniProt Q9EP73 19-238); test: ELISA on coated His-tag mouse PD-L1, OD450-630
T1 construct: Bought protein coated on the ELISA plate; also called mPD-L1; His-tag mouse PD-L1 protein; not shown: His tag
T1 sequence (Q9EP73 19-238 limits assumed, stated change not applied): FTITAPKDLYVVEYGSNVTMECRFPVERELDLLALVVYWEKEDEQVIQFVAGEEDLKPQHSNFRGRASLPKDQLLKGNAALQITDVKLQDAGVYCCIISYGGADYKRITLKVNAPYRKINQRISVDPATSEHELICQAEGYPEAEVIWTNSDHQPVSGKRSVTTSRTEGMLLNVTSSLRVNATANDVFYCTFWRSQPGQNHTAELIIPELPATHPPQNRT

Row | binding result | Binder
1 | no binding | B1

molecular target: T2, human PD-L1 (soluble protein of the kinetic measurements) (human, UniProt Q9NZQ7 19-238, limits assumed); test: BLI (Octet), antibody fixed on biosensor, PD-L1 in solution
T2 construct: kept apart from the His-tag protein of the ELISA; also called hPD-L1
T2 sequence (Q9NZQ7 19-238 limits assumed): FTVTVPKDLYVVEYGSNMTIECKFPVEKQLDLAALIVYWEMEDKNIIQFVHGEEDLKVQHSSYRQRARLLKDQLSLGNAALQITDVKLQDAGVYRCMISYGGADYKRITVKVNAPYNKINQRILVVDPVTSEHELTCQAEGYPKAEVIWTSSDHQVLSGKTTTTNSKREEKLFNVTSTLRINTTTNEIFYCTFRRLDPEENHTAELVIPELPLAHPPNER
Experimental: (§1) The binding ability of the selected anti-PD-L1 antibody to human or mouse PD-L1 was measured using the Octet system (Fortebio Inc. US). For this purpose, an anti-PD-L1 antibody was fixed on a biosensor, and binding kinetics at each concentration of human or mouse PD-L1 were measured to calculate a binding rate constant (kₐ), a dissociation rate constant (kdis) and a binding constant (KD) (Table 3).

Row | Kd | koff | kon | Binder
2 | 1.72 nM | 0.000324 s⁻¹ | 188000 M⁻¹ s⁻¹ | B2
3 | 0.629 nM | 0.000146 s⁻¹ | 232000 M⁻¹ s⁻¹ | B1

molecular target: T3, mouse PD-L1 (soluble protein of the kinetic measurements) (mouse, UniProt Q9EP73 19-238, limits assumed); test: as above
T3 construct: kept apart from the His-tag protein of the ELISA; also called mPD-L1
T3 sequence (Q9EP73 19-238 limits assumed): as the sequence (Q9EP73 19-238 limits assumed, stated change not applied) above
Experimental: as §1

Row | Kd | koff | kon | Binder
4 | 37.4 nM | 0.00211 s⁻¹ | 56300 M⁻¹ s⁻¹ | B2

molecular target: T2, human PD-L1 (soluble protein of the …); test: as above; remark: another data set of the same source
Experimental: as §1
(§2) The cell-binding ability of the optimized anti-PD-L1 antibody was measured through flow cytometry. The experiment was performed in the same manner as in Example 6. […] In order to evaluate binding force, binding kinetics were analyzed using Octet and the binding constant was calculated (Table 7).

Row | koff | kon | Kd | Binder
5 | 0.000324 s⁻¹ | 188000 M⁻¹ s⁻¹ | – | B2
6 | 1.02e-05 s⁻¹ | 174000 M⁻¹ s⁻¹ | 0.0586 nM | B3
7 | 3.19e-06 s⁻¹ | 164000 M⁻¹ s⁻¹ | 0.0194 nM | B4
8 | ~2.42e-05 s⁻¹ | 145000 M⁻¹ s⁻¹ | 0.167 nM | B5
9 | 2.2e-05 s⁻¹ | 165000 M⁻¹ s⁻¹ | 0.134 nM | B6
10 | 0.000109 s⁻¹ | 118000 M⁻¹ s⁻¹ | 0.918 nM | B7

molecular target: T3, mouse PD-L1 (soluble protein of the …); test: as above; remark: another data set of the same source
Experimental: as §1, §2

Row | Kd | koff | kon | Binder
11 | 37.4 nM | 0.00211 s⁻¹ | 56300 M⁻¹ s⁻¹ | B2
12 | 3.01 nM | 0.000986 s⁻¹ | 328000 M⁻¹ s⁻¹ | B3
13 | 1.22 nM | 0.000379 s⁻¹ | 310000 M⁻¹ s⁻¹ | B4
14 | 1.62 nM | 0.000422 s⁻¹ | 260000 M⁻¹ s⁻¹ | B5
15 | 2.65 nM | 0.000817 s⁻¹ | 308000 M⁻¹ s⁻¹ | B6
16 | 4.86 nM | 0.000626 s⁻¹ | 129000 M⁻¹ s⁻¹ | B7

molecular target: T4, human PD-L1 on hPD-L1/CHO-K1 overexpressing cells (human, UniProt Q9NZQ7 19-290); test: flow cytometry on hPD-L1/CHO-K1 cells (sheet label hPD-1/CHO-K1)
T4 construct: whole, on cells; also called human PD-L1-expressing cells
T4 sequence (Q9NZQ7 19-290): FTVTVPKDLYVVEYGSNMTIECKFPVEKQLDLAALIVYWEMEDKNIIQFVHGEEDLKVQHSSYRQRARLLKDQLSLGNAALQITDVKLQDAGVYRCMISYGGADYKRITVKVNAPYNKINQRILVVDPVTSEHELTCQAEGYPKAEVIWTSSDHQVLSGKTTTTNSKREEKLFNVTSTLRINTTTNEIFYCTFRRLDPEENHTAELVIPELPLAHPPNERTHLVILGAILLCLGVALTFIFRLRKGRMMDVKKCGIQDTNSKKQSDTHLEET
Experimental: (§3) For flow cytometry, overexpressing cell lines (hPD-L1/CHO-K1, mPD-L1/CHO-K1), established by introducing human and. mouse PD-L1 genes into CHO-K1 cells, were used. Each cell was maintained and cultured, washed with PBS, suspended in 5 mM EDTA and then recovered through centrifugation. A cell suspension (5×10⁶ cells/ml) was prepared using a FACS-exclusive buffer (containing 2% FBS and PBS 0.05% sodium azide), and was seeded at 100 μl/tube. […] of a test antibody was added at 100 μl to each test tube and then allowed to stand at 4° C. for 30 minutes to induce antibody-cell binding. […] After washing with 2 ml of FACS buffer, 200 μl of FACS buffer was added to suspend the cells. As a positive control group, fluorescence labeling was conducted using FITC-conjugated anti-human PD-L1 antibody (#558065, BD Biosciences) and PE-conjugated anti-mouse […] (#558091, BD Biosciences).
as §2

Row | % Gated in M1 | Geo Mean in M1 | Geo Mean, all events | Mean in M1 | Mean, all events | Binder
17 | 83.2% | 34.4 | 27.8 | 38.3 | 33.6 | B2
18 | 72.4% | 29.1 | 20.7 | 33 | 26.4 | B3
19 | 81.6% | 29.2 | 22.5 | 33.8 | 28.9 | B4
20 | 50.3% | 19.4 | 11.5 | 21 | 14.2 | B5
21 | 44.6% | 18.4 | 10.6 | 19.7 | 12.9 | B6
22 | 52.6% | 19.4 | 12.1 | 21 | 14.7 | B7

molecular target: T5, mouse PD-L1 on mPD-L1/CHO-K1 overexpressing cells (mouse, UniProt Q9EP73 19-290); test: flow cytometry on mPD-L1/CHO-K1 cells (sheet label mPD-1/CHO-K1)
T5 construct: whole, on cells; also called mouse PD-L1-expressing cells
T5 sequence (Q9EP73 19-290): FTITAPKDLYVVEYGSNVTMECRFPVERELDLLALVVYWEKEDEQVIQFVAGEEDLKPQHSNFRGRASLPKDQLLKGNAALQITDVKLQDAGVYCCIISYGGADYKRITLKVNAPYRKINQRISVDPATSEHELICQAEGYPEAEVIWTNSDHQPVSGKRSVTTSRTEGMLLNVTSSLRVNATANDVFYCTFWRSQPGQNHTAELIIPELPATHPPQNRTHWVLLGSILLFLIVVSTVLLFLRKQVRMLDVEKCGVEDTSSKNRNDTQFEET
Experimental: as §3, §2

Row | % Gated in M1 | Geo Mean in M1 | Geo Mean, all events | Mean in M1 | Mean, all events | Binder
23 | 28.8% | 20 | 10.4 | 20.6 | 12.3 | B2
24 | 51% | 19.1 | 10.8 | 20.3 | 13.8 | B3
25 | 27.2% | 16.1 | 7.13 | 16.6 | 9.1 | B4
26 | 18.1% | 15 | 6.41 | 15.4 | 7.85 | B5
27 | 7.31% | 14.2 | 5.39 | 14.4 | 6.38 | B6
28 | 9.44% | 14.2 | 5.55 | 14.5 | 6.63 | B7

molecular target: T5, mouse PD-L1 on mPD-L1/CHO-K1 …; test: flow cytometry, purified IgG on mPD-L1/CHO-K1 cells, PE anti-human IgG-Fc
Experimental: as §3

Row | binding result | Binder
29 | no binding | B1
